Data taken from patent US10808017B2, “Ubiquitin variants and uses therof as 53BP1 inhibitors” (The Governing Council of the University of Toronto, priority 2016, dated 2020).
Several values for one entry are separate records, joined by “and”; a condition that tells them apart may be missing. Equal values may be shown once. Entries after “also recorded” stand apart in the source; their conditions may differ.

Legend:
[1] = system: gene conversion (HR) in U2OS DR-GFP cells; assay: Direct-repeat (DR)-GFP gene conversion assay; format: cell-based, human
Description: FIG. 4. Activation of HR by i53. FIG. 4A, Schematic of the DR-GFP assay. FIG. 4B. U2OS DR-GFP cells were transfected with the vectors expressing i53, the DM mutant or an empty vector control (EV) along with an I-Scel expression vector. The percentage of GFP-positive cells was determined 48 h post-transfection for each condition and was normalized to the empty vector condition (mean±s.d., N=4). FIG. 4C, U2OS DR-GFP were first transfected with siRNAs targeting the 53BP1 or BRCA1 mRNAs along with a non-targeting siRNA (CTRL). 24 h post-transfection, cells were transfected with the I-SceI expression vector and the percentage of GFP-positive cells was determined 48 h post-siRNA transfection for each condition. The values were normalized to the empty vector condition and presented as the mean±s.e.m; N=4. FIG. 4D, Schematic of the gene targeting assay. FIG. 4E, Gene targeting efficiency at the LMNA locus in parental or 53BP1Δ U2OS cells following transfection with vectors expressing Flag-tagged i53 or its DM mutant or an empty vector control (EV). The DNA-PK inhibitor NU7441 was also added where indicated. 24 h post-transfection, cells were analysed for mClover fluorescence. Individual experiments are presented with the error bar representing the s.d., (N=3). FIG. 4F, Gene targeting at the LMNA locus in G 1-arrested parental (WT) or 53BP1Δ U2OS cells transfected with vectors expressing Flag-tagged i53 or its DM mutant or an empty vector control (EV). The DNA-PK inhibitor NU7441 was also added in the indicated conditions. 24 h post-transfection, cells were analysed for mClover fluorescence. Individual experiments are present with the error bar representing the s.d., (N=3).
The direct repeat (DR)-GFP assay to measure the frequency of HR and the strand annealing EJ2-GFP assay to measure the frequency of MMEJ were performed as previously described. Briefly, U2OS DR-GFP or U2OS EJ2-GFP cells were transfected with 10 nM siRNA (Dharmacon) using Lipofectamine RNAiMAX (Invitrogen). 24 h later, the cells were transfected with the pCBASceI plasmid (Addgene #26477) and plasmids, using Lipofectamine 2000 (Invitrogen). 48 h post-plasmid transfection, the cells were trypsinized and the percentage of GFP-expressing cells was analyzed using the BD FACSCalibur flow cytometer.
AAV-293 cells (Agilent) were transfected with pAAV expression, pDJ and pHelper constructs (Cell Biolabs, Inc., USA) in equal amounts using PEI to produce AAV-DJ expression viruses. 48-72 h later, the viral supernatant was used to transduce target cells for 24 h, and assays were initiated a further 24 h later.

[2] = system: MMEJ in U2OS EJ2-GFP cells; assay: EJ2-GFP reporter assay for MMEJ; format: cell-based; conditions: GFP-positive cells 48 h post-transfection, N=4
Description: FIG. 8 (Related to FIG. 3.) FIG. 8A, Immunoblots of whole cell lysates prepared from U2OS DR-GFP cells transfected with vectors expressing Flag-tagged i53, its DM mutant or an empty vector along with an I-SceI expression vector and probed with the indicated antibodies. FIG. 8B, U2OS DR-GFP cells were transfected with the vectors expressing Flag-tagged i53 or the DM mutant along with an I-SceI expression vector. Cells were treated either with DMSO (−) or 1 μM SCR7 (+). The percentage of GFP-positive cells was determined 48 h post-transfection for each condition and was normalized to the DM condition (mean±s.d., N=4). FIG. 8C, Control immunoblot of the experiment shown in (b). FIG. 8D, Immunoblots of whole cell lysates prepared from U2OS DR-GFP cells transfected with the indicated siRNAs along with an I-Scel expression vector and probed with the indicated antibodies. […] The percentage of GFP-positive cells was determined 48 h post-transfection for each condition and was normalized to the empty vector condition (mean±s.d., N=4). […]
The direct repeat (DR)-GFP assay to measure the frequency of HR and the strand annealing EJ2-GFP assay to measure the frequency of MMEJ were performed as previously described. […] 48 h post-plasmid transfection, the cells were trypsinized and the percentage of GFP-expressing cells was analyzed using the BD FACSCalibur flow cytometer.

RPL24 = biological target: T1, RPL24 (Homo sapiens, UniProt P83731); assay: Flag IP-MS of i53/i53-DM baits: prey RPL24; format: binding; conditions: 293T Flp-In/T-Rex extracts, LC-MS/MS, one column per replicate IP
T1 construct: endogenous in cells; host or cells: HEK293 Flp-In/T-REx
Description: (§1) Following immunoprecipitation of Flag-tagged i53 and i-53-DM from HEK293 Flp-In/T-REx cells, peptides were identified using LC-MS/MS. Proteins were digested in solution with trypsin (Sigma, T7575-1KT) and dried to completeness. For LC-MS/MS analysis, peptides were reconstituted in 5% formic acid and loaded onto a 12-15 cm fused silica column with pulled tip packed in-house with 3.5 μm Zorbax C18 (Agilent Technologies, Calif., USA).
(§2) i53 and i53-DM precipitates were analyzed using an LTQ (Thermo Scientific) coupled to an Agilent 1100 Series HPLC (Agilent Technologies). Peptides were eluted from the column using a 90 min period cycle with a linear gradient from 0% to 40% ACN in 0.1% formic acid. Tandem MS spectra were acquired in a data-dependent mode for the top 5 (LTQ) most abundant ions using collision-induced dissociation. Acquired spectra were searched against the human Refseq_V53 database using Mascot (Matrix Science).
(§3) 293T Flp-In/T-Rex cell lines were generated that expressed Flag-tagged i53 or i53-DM under the control of a tetracycline-inducible promoter as previously described. Nine IP-MS experiments were analyzed (3 biological replicate IPs each for control i53- and i53-DM expressing cell lines). The interacting proteins were identified by MASCOT to identify high-confidence interactors for i53. […]

RPS24 = biological target: T2, RPS24 (Homo sapiens, UniProt P62847); assay: Flag IP-MS of i53/i53-DM baits: prey RPS24; format: binding; conditions: 293T Flp-In/T-Rex extracts, LC-MS/MS, one column per replicate IP
T2 construct: endogenous in cells; host or cells: HEK293 Flp-In/T-REx
Description: as §1, §2, §3

ARFGAP2 = biological target: T3, ARFGAP2 (Homo sapiens, UniProt Q8N6H7); assay: Flag IP-MS of i53/i53-DM baits: prey ARFGAP2; format: binding; conditions: 293T Flp-In/T-Rex extracts, LC-MS/MS, one column per replicate IP
T3 construct: endogenous in cells; host or cells: HEK293 Flp-In/T-REx
Description: as §1, §2, §3

MYCBP = biological target: T4, MYCBP (Homo sapiens, UniProt Q99417); assay: Flag IP-MS of i53/i53-DM baits: prey MYCBP; format: binding; conditions: 293T Flp-In/T-Rex extracts, LC-MS/MS, one column per replicate IP, listed as Flag-i53-DM
T4 construct: endogenous in cells; host or cells: HEK293 Flp-In/T-REx
T4 sequence (Q99417 1-103): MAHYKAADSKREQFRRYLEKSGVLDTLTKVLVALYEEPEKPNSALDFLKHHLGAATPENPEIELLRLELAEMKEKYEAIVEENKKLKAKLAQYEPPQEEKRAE
Description: as §1, §2, §3

RPL10 = biological target: T5, RPL10 (Homo sapiens, UniProt P27635); assay: Flag IP-MS of i53/i53-DM baits: prey RPL10; format: binding; conditions: 293T Flp-In/T-Rex extracts, LC-MS/MS, one column per replicate IP
T5 construct: endogenous in cells; host or cells: HEK293 Flp-In/T-REx
Description: as §1, §2, §3

HIST2H2BE = biological target: T6, HIST2H2BE (Homo sapiens, UniProt Q16778); assay: Flag IP-MS of i53/i53-DM baits: prey HIST2H2BE; format: binding; conditions: 293T Flp-In/T-Rex extracts, LC-MS/MS, one column per replicate IP
T6 construct: endogenous in cells; host or cells: HEK293 Flp-In/T-REx cells
Description: as §1, §2, §3

T3 sequence (Q8N6H7 whole entry): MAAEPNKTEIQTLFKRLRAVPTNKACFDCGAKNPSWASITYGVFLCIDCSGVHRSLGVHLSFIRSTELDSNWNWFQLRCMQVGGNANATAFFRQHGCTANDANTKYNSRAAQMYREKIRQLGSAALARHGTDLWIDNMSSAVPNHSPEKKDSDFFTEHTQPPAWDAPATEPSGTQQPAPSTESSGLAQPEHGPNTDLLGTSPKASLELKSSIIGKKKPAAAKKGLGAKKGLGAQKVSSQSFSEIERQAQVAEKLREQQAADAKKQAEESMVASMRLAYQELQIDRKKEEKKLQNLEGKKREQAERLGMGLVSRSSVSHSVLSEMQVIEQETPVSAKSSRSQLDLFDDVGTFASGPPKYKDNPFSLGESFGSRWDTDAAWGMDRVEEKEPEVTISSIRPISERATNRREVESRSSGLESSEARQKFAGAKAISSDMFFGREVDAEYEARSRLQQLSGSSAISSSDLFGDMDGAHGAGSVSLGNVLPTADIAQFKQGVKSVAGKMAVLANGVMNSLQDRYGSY

Total peptides, RPL24 (RPL24) | Total peptides, RPS24 (RPS24) | Total peptides, ARFGAP2 (ARFGAP2) | Total peptides, MYCBP (MYCBP) | Total peptides, RPL10 (RPL10) | Total peptides, HIST2H2BE (HIST2H2BE) | Substance | Homologous recombination in DR-GFP gene conversion assay after AAV-mediated delivery ([1]; AAV-DJ delivery, versus Flag-i53-DM) | Gene conversion in DR-GFP assay (comparison in words) ([1]; SCR7 at 1 μM, i53 by plasmid expression) | Increase in MMEJ over the empty vector [2]
5 | – | – | – | – | – | i53: UbvG08 with C-terminal di-glycine removed and I44A mutation; genetically encoded inhibitor of 53BP1 | stimulate homologous recombination | more potent inducer of gene conversion; also recorded: stimulated gene conversion more than 53BP1 depletion by siRNA | 1.4+/−0.15 fold
5 | 4 | 3 | 7 and 5 | 11 | 3 | i53-DM: 53BP1-binding deficient mutant of i53 (P69L, L70V) | – | – | 1.3+/−0.1 fold
